Experimental data as given in PMC3215730.

How the values were obtained:
[1] = target: Baculovirus-produced recombinant purified active human Src (kinase assays) (human) (UniProt P12931); experiment: kinase activity titration (filter-binding Src kinase assay, kinetic fit)
[2] = target: Baculovirus-produced recombinant purified active human Src (kinase assays) (human) (UniProt P12931); experiment: kinase activity titration (filter-binding Src kinase assay, kinetic fit); apparent; increasing RIL alone titrated in the Src kinase reaction with peptide and ATP substrates

## NS1 wild type (230 aa) from A/Turkey/Italy/977/99 H7N1 (F3) (natural protein)
[1]
  Kd: 400 nM

B1: recombinant human GST-tagged RIL (natural protein)
chain: MPHSVTLRGPSPWGFRLVGGRDFSAPLTISRVHAGSKAALAALCPGDLIQAINGESTELMTHLEAQNRIKGCHDHLTLSVSRPEGRSWPSAPDDSKAQAHRIHIDPEIQDGSPTTSRRPSGTGTGPEDGRPSLGSPYGQPPRFPVPHNGSSEATLPAQMSTLHVSPPPSADPARGLPRSRDCRVDLGSEVYRMLREPAEPVAAEPKQSGSFRYLQGMLEAGEGGDWPGPGGPRNLKPTASKLGAPLSGLQGLPECTRCGHGIVGTIVKARDKLYHPECFMCSDCGLNLKQRGYFFLDERLYCESHAKARVKPPEGYDVVAVYPNAKVELV
[1]
  Kd RIL in the presence of F4 (Δ225–230): 230 nM
  Kd RIL in the presence of F6 (Δ221–230): 470 nM
[2]
  Kd: 80 nM
